Results on one molecule are retold here after US20210024610A1 (Hoffmann-La Roche, published 2021).

Test in all cases: cell-based or functional assay
Assay [1] deals with T1, human 4-1BB expressed on cells (Jurkat-hu4-1BB-NFκB-luc2 reporter cells; human T cells in PBMC) (human, UniProt Q07011 24-255).
In assay [2] the target is T1, human 4-1BB expressed on cells …. The source holds these as a separate data set.
For assay [3] the target is unchanged. More on the design: unit not given beside the values.
Assay [4] has the same target. The source holds these as a separate data set.

Read-outs that look alike come from different tables or passages of the source.

T1 sequence (Q07011 24-255): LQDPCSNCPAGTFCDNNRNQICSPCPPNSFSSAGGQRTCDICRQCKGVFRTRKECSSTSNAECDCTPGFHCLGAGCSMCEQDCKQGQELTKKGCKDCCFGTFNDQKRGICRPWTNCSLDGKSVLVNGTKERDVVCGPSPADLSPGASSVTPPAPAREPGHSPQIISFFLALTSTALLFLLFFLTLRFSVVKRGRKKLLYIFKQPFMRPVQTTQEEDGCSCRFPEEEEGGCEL

B1: anti-human 4-1BB clone 20H4.9 human IgG4 (antibody, V domains shown)
VH: QVQLQQWGAGLLKPSETLSLTCAVYGGSFSGYYWSWIRQSPEKGLEWIGEINHGGYVTYNPSLESRVTISVDTSKNQFSLKLSSVTAADTAVYYCARDYGPGNYDWYFDLWGRGTLVTVSS
VL: EIVLTQSPATLSLSPGERATLSCRASQSVSSYLAWYQQKPGQAPRLLIYDASNRATGIPARFSGSGSGTDFTLTISSLEPEDFAVYYCQQRSNWPPALTFCGGTKVEIKR
B1: in assay [1], the “EC50 PBMC activation assay, % proliferating CD4, with NCI-N87 cells” value came out at 0.01 nM and the “EC50 PBMC activation assay, % proliferating CD8, with NCI-N87 cells” value is approximately 0.03 nM. In assay [2], the “EC50 of NFκB-activation-induced Luciferase activity, Jurkat-hu4-1BB-NFκB-luc2 reporter cells, with KPL-4 cells” value was 0.02 nM; the “EC50 of NFκB-activation-induced Luciferase activity, Jurkat-hu4-1BB-NFκB-luc2 reporter cells, with NCI-N87 cells” value came to 0.02 nM; the “EC50 of NFκB-activation-induced Luciferase activity, Jurkat-hu4-1BB-NFκB-luc2 reporter cells, with SK-Br3 cells” value is 0.01 nM. Moreover, in assay [3], the “AUC above background, PBMC activation assay, % proliferating CD4” value was determined as 10 and the “AUC above background, PBMC activation assay, % proliferating CD8” value is 16. In addition, the “EC50 of NFκB-activation-induced Luciferase activity, Jurkat-hu4-1BB-NFκB-luc2 reporter cells, with NCI-N87 cells” value in assay [4] turned out to be 0.14 nM.
